Test results taken from paper PMC9646525, “Cryo-EM structure of the SEA complex” (Nature, 2022).

Target: T1, Sea2 (S. cerevisiae (endogenous in yeast …, UniProt Q08281 1-1341))
T1 construct: Sea2, S. cerevisiae, endogenous subunit of the SEAC (SEACAT, core); Native protein of the purified complex; two copies in the SEAC; source: endogenous, yeast cells expressing Sea4-TAP; in lysate and co-purified with Sea4-TAP (IgG Dynabeads, TEV elution)
T1 sequence (looked up): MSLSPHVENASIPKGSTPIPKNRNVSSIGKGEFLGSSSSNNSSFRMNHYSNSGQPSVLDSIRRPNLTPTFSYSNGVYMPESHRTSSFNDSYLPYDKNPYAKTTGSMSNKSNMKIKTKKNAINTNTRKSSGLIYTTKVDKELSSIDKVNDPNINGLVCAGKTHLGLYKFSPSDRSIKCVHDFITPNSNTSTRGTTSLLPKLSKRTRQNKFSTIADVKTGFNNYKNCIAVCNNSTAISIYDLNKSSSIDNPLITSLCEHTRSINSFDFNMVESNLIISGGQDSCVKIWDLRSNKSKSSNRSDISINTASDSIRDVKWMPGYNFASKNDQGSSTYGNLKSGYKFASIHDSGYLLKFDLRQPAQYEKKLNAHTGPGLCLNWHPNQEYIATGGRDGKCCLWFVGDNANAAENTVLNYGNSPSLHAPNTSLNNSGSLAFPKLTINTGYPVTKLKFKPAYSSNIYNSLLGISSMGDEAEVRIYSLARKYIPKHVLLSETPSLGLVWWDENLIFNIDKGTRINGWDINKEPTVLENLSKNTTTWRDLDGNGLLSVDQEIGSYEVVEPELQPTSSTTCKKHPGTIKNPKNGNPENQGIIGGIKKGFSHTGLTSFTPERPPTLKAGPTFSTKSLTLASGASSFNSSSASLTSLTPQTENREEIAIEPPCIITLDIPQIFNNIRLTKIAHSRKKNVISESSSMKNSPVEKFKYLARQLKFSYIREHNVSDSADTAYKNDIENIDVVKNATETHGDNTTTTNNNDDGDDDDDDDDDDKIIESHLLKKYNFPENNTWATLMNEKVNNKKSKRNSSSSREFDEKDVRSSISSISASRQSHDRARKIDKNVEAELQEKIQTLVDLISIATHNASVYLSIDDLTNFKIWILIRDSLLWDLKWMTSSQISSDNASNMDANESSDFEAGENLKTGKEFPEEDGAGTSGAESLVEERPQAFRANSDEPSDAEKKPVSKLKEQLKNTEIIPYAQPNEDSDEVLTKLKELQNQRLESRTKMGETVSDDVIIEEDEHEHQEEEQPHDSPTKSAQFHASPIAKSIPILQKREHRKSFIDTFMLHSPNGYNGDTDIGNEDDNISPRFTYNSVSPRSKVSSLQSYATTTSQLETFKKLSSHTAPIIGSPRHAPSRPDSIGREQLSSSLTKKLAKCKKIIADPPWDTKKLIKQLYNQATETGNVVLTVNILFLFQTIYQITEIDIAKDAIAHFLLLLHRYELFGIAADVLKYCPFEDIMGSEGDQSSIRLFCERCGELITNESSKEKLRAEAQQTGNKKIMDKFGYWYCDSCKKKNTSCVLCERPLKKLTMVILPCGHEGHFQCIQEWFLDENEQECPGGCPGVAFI
Experiment: cryo-EM structure; endogenous SEAC purified from yeast via Sea4-TAP (IgG Dynabeads, TEV elution in 20 mM HEPES-NaOH pH 7.4, 300 mM NaCl, 2 mM DTT), on graphene-oxide-coated grids
Conditions: both partners purified

B1: Seh1 (natural protein, UniProt P53011 1-349, looked up)
chain: MQPFDSGHDDLVHDVVYDFYGRHVATCSSDQHIKVFKLDKDTSNWELSDSWRAHDSSIVAIDWASPEYGRIIASASYDKTVKLWEEDPDQEECSGRRWNKLCTLNDSKGSLYSVKFAPAHLGLKLACLGNDGILRLYDALEPSDLRSWTLTSEMKVLSIPPANHLQSDFCLSWCPSRFSPEKLAVSALEQAIIYQRGKDGKLHVAAKLPGHKSLIRSISWAPSIGRWYQLIATGCKDGRIRIFKITEKLSPLASEESLTNSNMFDNSADVDMDAQGRSDSNTEEKAELQSNLQVELLSEHDDHNGEVWSVSWNLTGTILSSAGDDGKVRLWKATYSNEFKCMSVITAQQ
notes: Seh1, S. cerevisiae, endogenous subunit of the SEAC (SEACAT, core); Native protein of the purified complex; six copies in the SEAC; source: endogenous, yeast cells expressing Sea4-TAP; in lysate and co-purified with Sea4-TAP (IgG Dynabeads, TEV elution)
binding result: binds
